# Measurements from paper PMC12747129 (Science (New York, N.Y.), 2023).
# Target: the molecule itself
# Assay: cryo-EM structure
protein,measurement,value
"E. coli MraY (EcMraY), wild type (enzyme) MLVWLAEHLVKYYSGFNVFSYLTFRAIVSLLTALFISLWMGPRMIAHLQKLSFGQVVRNDGPESHFSKRGTPTMGGIMILTAIVISVLLWAYPSNPYVWCVLVVLVGYGVIGFVDDYRKVVRKDTKGLIARWKYFWMSVIALGVAFALYLAGKDTPATQLVVPFFKDVMPQLGLFYILLAYFVIVGTGNAVNLTDGLDGLAIMPTVFVAGGFALVAWATGNMNFASYLHIPYLRHAGELVIVCTAIVGAGLGFLWFNTYPAQVFMGDVGSLALGGALGIIAVLLRQEFLLVIMGGVFVVETLSVILQVGSFKLRGQRIFRMAPIHHHYELKGWPEPRVIVRFWIISLMLVLIGLATLKVR",stoichiometry N,2
